Where a chain is given by its changes, count along the chain named. Numbers in names are those of the source.
Experiments:
STAT2_(133–738) = target: T1, STAT2_(133–738) (mouse, UniProt Q9WVL2 133-738); assay: SEC
T1 sequence (looked up): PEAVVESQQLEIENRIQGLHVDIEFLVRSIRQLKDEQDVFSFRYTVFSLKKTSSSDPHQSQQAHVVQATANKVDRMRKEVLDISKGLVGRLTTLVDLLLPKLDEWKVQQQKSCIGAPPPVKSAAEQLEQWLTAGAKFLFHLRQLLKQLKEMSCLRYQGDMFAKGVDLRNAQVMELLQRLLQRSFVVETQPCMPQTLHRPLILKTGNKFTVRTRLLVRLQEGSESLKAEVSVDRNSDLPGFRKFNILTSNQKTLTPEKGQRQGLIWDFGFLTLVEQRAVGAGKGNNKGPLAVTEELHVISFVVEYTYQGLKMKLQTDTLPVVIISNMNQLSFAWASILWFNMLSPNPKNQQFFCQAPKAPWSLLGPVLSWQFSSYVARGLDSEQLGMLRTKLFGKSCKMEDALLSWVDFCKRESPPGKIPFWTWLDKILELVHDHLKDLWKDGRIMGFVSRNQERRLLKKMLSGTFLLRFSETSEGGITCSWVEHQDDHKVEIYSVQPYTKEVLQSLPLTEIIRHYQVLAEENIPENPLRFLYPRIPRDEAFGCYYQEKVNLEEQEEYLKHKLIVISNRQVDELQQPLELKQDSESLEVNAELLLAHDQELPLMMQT

STAT2_(133–679) V171E = target: T2, STAT2_(133–679) V171E (mouse, UniProt Q9WVL2 133-679, V171E); assay: ITC
T2 sequence (looked up): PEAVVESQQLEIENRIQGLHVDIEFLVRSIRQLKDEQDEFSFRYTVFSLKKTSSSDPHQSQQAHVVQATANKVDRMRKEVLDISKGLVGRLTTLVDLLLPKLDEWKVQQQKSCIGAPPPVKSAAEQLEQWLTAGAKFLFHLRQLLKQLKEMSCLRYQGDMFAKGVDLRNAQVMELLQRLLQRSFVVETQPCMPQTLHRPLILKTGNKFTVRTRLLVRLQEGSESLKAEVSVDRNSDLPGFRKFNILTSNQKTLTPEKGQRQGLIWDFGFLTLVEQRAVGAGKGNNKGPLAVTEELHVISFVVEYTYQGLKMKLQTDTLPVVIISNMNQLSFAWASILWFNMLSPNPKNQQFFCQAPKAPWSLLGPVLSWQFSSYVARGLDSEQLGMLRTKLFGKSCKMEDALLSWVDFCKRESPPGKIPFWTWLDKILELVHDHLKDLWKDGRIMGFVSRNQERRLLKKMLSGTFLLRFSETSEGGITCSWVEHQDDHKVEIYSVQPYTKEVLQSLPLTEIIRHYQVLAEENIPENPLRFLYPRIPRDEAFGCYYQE

STAT2_(133–679) = target: T3, STAT2_(133–679) (mouse, UniProt Q9WVL2 133-679); assay: ITC
T3 sequence (looked up): T2 sequence (looked up) with E39V

STAT1_(136–713) E169V = target: T4, STAT1_(136–713) E169V (mouse, UniProt P42225 136-713, E169V); assay: ITC
T4 sequence (looked up): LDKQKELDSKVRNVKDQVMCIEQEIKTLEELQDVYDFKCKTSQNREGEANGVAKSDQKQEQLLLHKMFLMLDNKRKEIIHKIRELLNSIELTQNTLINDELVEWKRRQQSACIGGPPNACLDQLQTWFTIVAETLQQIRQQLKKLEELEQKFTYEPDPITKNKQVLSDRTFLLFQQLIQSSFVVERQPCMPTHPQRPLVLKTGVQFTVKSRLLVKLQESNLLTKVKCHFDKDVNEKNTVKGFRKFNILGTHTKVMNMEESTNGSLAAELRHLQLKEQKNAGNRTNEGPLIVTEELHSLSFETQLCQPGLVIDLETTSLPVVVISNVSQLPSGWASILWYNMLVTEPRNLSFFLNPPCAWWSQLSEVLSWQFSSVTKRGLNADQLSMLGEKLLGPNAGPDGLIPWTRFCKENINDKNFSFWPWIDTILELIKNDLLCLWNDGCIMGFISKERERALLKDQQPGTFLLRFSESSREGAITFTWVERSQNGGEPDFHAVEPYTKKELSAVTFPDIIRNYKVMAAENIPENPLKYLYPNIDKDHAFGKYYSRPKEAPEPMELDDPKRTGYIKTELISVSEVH

STAT1_(136–713) = target: T5, STAT1_(136–713) (mouse, UniProt P42225 136-713); assay: ITC
T5 sequence (looked up): T4 sequence (looked up) with V34E

[1] = target: T6, IRF9–IAD_(182–385) E347A E348A (crystallised form in the complex) (mouse, UniProt Q61179 182-385, E347A | E348A); assay: crystal structure
T6 sequence (looked up): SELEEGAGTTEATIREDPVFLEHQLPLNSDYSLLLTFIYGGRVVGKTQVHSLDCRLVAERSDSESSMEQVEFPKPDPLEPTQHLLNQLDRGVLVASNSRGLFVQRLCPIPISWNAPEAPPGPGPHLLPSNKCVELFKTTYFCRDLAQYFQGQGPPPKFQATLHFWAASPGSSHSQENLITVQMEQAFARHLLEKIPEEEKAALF

B1: full-length IRF9 (IRF9FL) (natural protein, mouse, UniProt Q61179 1-399, looked up)
chain: MASGKVRCTRKLRSWIVEQVESGHFPGVCWDDAAKTMFRIPWKHAGKQDFREDQDAAIFKAWALFKEKHKDGDIGHPAVWKTRLRCALNKSSEFEEVPERGRMDVAEPYKVYRILPAGTLPNQPRNQKSPCKRSISCVSPEREENMENGRTNGVVNHSDSGSNIGGGGNGSNRSDSNSNCNSELEEGAGTTEATIREDPVFLEHQLPLNSDYSLLLTFIYGGRVVGKTQVHSLDCRLVAERSDSESSMEQVEFPKPDPLEPTQHLLNQLDRGVLVASNSRGLFVQRLCPIPISWNAPEAPPGPGPHLLPSNKCVELFKTTYFCRDLAQYFQGQGPPPKFQATLHFWEESPGSSHSQENLITVQMEQAFARHLLEKIPEEEKAALFLLQHTEQSPSALGH
- binding result (STAT2_(133–738)): binds

B2: IRF9–IAD_(182–385) (domain or fragment, mouse, UniProt Q61179 182-385, looked up)
chain: T6 sequence (looked up) with A166E, A167E
- Kd (STAT2_(133–679) V171E): 2500 nM
- Kd (STAT2_(133–679)): 10 nM
- Kd (STAT1_(136–713) E169V): 116 nM
- Kd (STAT1_(136–713)): 5000 nM

B3: IRF9–IAD IF2 (R324E, D325K, Q331E, Q333E, P335S) (domain or fragment, mouse, UniProt Q61179 182-385, looked up)
chain: T6 sequence (looked up) with R143E, D144K, Q150E, Q152E, P154S, A166E, A167E
- Kd (STAT2_(133–679)): 11 nM

B4: IRF9–IAD IF3 (L326A, F330A, I376A) (domain or fragment, mouse, UniProt Q61179 182-385, looked up)
chain: T6 sequence (looked up) with L145A, F149A, A166E, A167E, I195A
- Kd (STAT2_(133–679)): 17 nM

B5: STAT2–CCD_(133–315) Q242A K243A (crystallised form) (domain or fragment, mouse, UniProt Q9WVL2 133-315, looked up)
chain: PEAVVESQQLEIENRIQGLHVDIEFLVRSIRQLKDEQDVFSFRYTVFSLKKTSSSDPHQSQQAHVVQATANKVDRMRKEVLDISKGLVGRLTTLVDLLLPKLDEWKVQQAASCIGAPPPVKSAAEQLEQWLTAGAKFLFHLRQLLKQLKEMSCLRYQGDMFAKGVDLRNAQVMELLQRLLQRS
- binding result [1]: binds

Reference: article PMC5789952 (Proceedings of the National Academy of Sciences of the …, 2017)
